The results in this text go back to article PMC3040192.

Some targets named below: His149 (UniProt position 149, DAQNSHSYCFE); His141 (UniProt position 141, VFSEFHDADAQ); His45 (UniProt position 45, VIMGRHTWESI); His114 (UniProt position 114, KLYLTHIDAEV); His124 (UniProt position 124, VEGDTHFPDYE).
Holding throughout (experiment): mass spectrometry
Common to all, as to conditions: 37 °C (72 h incubation), 50 mM NaCl plus 50 mM buffer, 50 mM MES (pH 5.0-7.5) or 50 mM HEPES (pH 8.0-9.0), folded

Where [1] appears, read: Binary complex with methotrexate (DHFR-MTX; five-fold molar excess of MTX added during preparation).
Setting [2] is: Ternary complex with folate and NADP+ (DHFR-folate-NADP+; five-fold molar excess of each ligand added during preparation).
The mark [3] stands for this setting: Ternary complex with methotrexate and NADPH (DHFR-MTX-NADPH; five-fold molar excess of each ligand added during preparation).

With “Dihydrofolate reductase (DHFR) (Escherichia coli)”, the pKa was 6.13 (±0.13) with His149 (setting [1]); 6.84 (±0.17) with His149 (setting [2]); 6.17 (±0.10) with His149 (setting [3]); 6.51 (±0.04) with His149 (apo-DHFR (no ligand)); 8.12 (±0.14) with His141 (setting [1]); 8.14 (±0.11) with His141 (setting [2]). The pKa is 8.29 (±0.10) in the data set with His141 (setting [3]); 8.04 (±0.08) with His141 (apo-DHFR (no ligand)); 7.15 (±0.04) in the data set with His45 (setting [1]); 7.30 (±0.07) in the data set with His45 (setting [2]); 7.43 (±0.03) with His45 (setting [3]); 6.99 (±0.07) with His45 (apo-DHFR (no ligand)). Moreover, the pKa is recorded as 7.17 (±0.16) with His114 (setting [2]); 6.99 (±0.10) with His114 (setting [3]); 6.84 (±0.20) with His114 (apo-DHFR (no ligand)); 7.02 (±0.06) with His124 (setting [1]); 7.61 (±0.19) with His124 (setting [2]); 7.17 (±0.20) with His124 (setting [3]). The pKa with His124 (apo-DHFR (no ligand)) is recorded as 7.60 (±0.03).
